± gives the uncertainty stated by the source.
Test: protein stability index of a GFP-peptide fusion (yeast GPS) (PSI 1-4); higher = more stable; sorted into four equal gates, so the index is relative within each strain
Summary of the method: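 Sequencing reads from sorted gates were used to score each peptide. The library consisted of tiled 17-residue yeast protein peptides fused downstream of GFP on a Cherry-expressing plasmid, pooled and carried in yeast. Mid-log cultures in leucine-free medium were split into four equal gates by GFP/Cherry ratio, and each gate's plasmids were PCR-amplified and Illumina-sequenced. The protein stability index adds up, over all gates, the read frequency multiplied by the gate number.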

Sequence	protein stability index (doa10∆)	protein stability index (pdr5∆)	protein stability index (san1∆)	protein stability index (ubr1∆)
GDKVVVTIWYRAPELLL [SSN3]	1.74 ± 0.058	1.78 ± 0.072	1.74 ± 0.068	2.05 ± 0.044
LMRQGVLGIKVKIMRDP [RPS3]	2.4 ± 0.085	2.33 ± 0.074	2.25 ± 0.083	2.74 ± 0.051
NGCSGADVKGVCTEAGM [RPT6]	3.15 ± 0.18	3.7 ± 0.16	3.25 ± 0.11	3.1 ± 0.11
ADLMALENATWTMRIEG [SNF12]	2.94 ± 0.11	3.05 ± 0.13	3.17 ± 0.12	3.07 ± 0.081
TVPNINFSGLNGGITNT [YOR098C/NUP1]	3.45 ± 0.15	3.35 ± 0.22	3.74 ± 0.11	3.67 ± 0.12
VVGQLFQIDNDNIRYAT [SMC2]	2.67 ± 0.067	2.67 ± 0.066	2.65 ± 0.065	2.88 ± 0.078
HEAYSIIEKITDQILQL [RRP45]	2.55 ± 0.22	2.31 ± 0.2		
IEKVDRENMICKIDFQK [RRI2]	3.04 ± 0.11	3.03 ± 0.1	3.18 ± 0.063	3.15 ± 0.065
IEEQGWGGFPLDISVFL [TAF14]	3.38 ± 0.063	3.4 ± 0.053	3.35 ± 0.048	3.33 ± 0.047
LYKLNDKIAVAVAGLTA [PRE9]	2.29 ± 0.056	2.14 ± 0.052	2.18 ± 0.095	2.31 ± 0.043
SLNLTDDVISNAGTNDN [MCD1]	2.88 ± 0.047	2.97 ± 0.057	3.11 ± 0.036	2.96 ± 0.041
ISLVDDIINAVNEIMYK [MTW1]	2.9 ± 0.073	2.91 ± 0.081	2.83 ± 0.053	3.1 ± 0.095
MSLEPTQTVSGTPPMLH [DSN1]	2.78 ± 0.14	3 ± 0.12	2.92 ± 0.22	3 ± 0.1
GSVFNMNGNTNANTVFA [YOR098C/NUP1]	2.29 ± 0.095	3 ± 0.12	3.01 ± 0.17	2.44 ± 0.066
RKRVYNIKFLSKLEGTI [ESC2]		3.51 ± 0.2		3.21 ± 0.16
NFTSPTAVVNNAAPANV [SWI1]	2.86 ± 0.057	2.77 ± 0.08	2.69 ± 0.088	2.91 ± 0.053
VVERHLEDGDVVLFNRQ [RPO31]	3.41 ± 0.079	3.32 ± 0.077	3.57 ± 0.069	3.38 ± 0.083
TAFALGIACAGKGLQSA [RPN2]	1.25 ± 0.086	1.33 ± 0.11	1.3 ± 0.17	1.19 ± 0.076
ALTKFEASQVTEKQRKK [RPL35A]	3.2 ± 0.27	2.57 ± 0.1	3.1 ± 0.064	3.17 ± 0.061
ALPNIENDIIKLSDSKT [BRR2]	2.79 ± 0.054	3.16 ± 0.055	2.82 ± 0.044	3.23 ± 0.054
NFEAVFERLVPRGTAKL [SMC3]	2.93 ± 0.15	2.84 ± 0.16		2.83 ± 0.042
NSKPEKSSDSNDSNPSF [YLR335W/NUP2]	2.47 ± 0.056	2.62 ± 0.064	2.25 ± 0.061	2.76 ± 0.036
TRFKAVVVVGDSNGHVG [RPS2]	1.87 ± 0.05	1.96 ± 0.064	1.84 ± 0.11	1.99 ± 0.043
PNINTWQQVTALAQQKL [GAL11]	2.2 ± 0.058	2.23 ± 0.064	2.11 ± 0.085	2.08 ± 0.054
TFVERLPNETINDRNDR [DIS3]				2.28 ± 0.11
YKAQADTFYMNVESVGS [RPB3]	2.75 ± 0.088	2.34 ± 0.058	2.98 ± 0.068	3.07 ± 0.079
PPEEFSNTIDELSTDII [SRB7]	3.1 ± 0.057	3.16 ± 0.068	3.26 ± 0.069	3.05 ± 0.06

Sequence	protein stability index (doa10∆)	protein stability index (pdr5∆)	protein stability index (san1∆)	protein stability index (ubr1∆)
DTYRTLMEEIESLKKEL [YIL149C/MLP2]	3.16 ± 0.1	3.36 ± 0.092	3.4 ± 0.07	3.35 ± 0.068
WLYVYETPNQDATYDSA [RPN6]	2.62 ± 0.075	2.75 ± 0.067	2.67 ± 0.068	2.49 ± 0.055
GSNVLKSGKTIVITSIT [RRP43]	1.72 ± 0.063	2.57 ± 0.061	2.41 ± 0.067	2.33 ± 0.066
MTSENPDVLLSRVINVV [RRP6]	1.39 ± 0.12	1.61 ± 0.083	1.49 ± 0.12	2.27 ± 0.14
LDPLEMEGNAQPVNFNR [RPO31]	3.37 ± 0.09	3.29 ± 0.081	2.93 ± 0.1	2.97 ± 0.1
PMEVMGLMLGEFVDDYT [RPN11]	3.29 ± 0.12	3.28 ± 0.095	3.12 ± 0.14	3.08 ± 0.074
SKDVSRLLSALGPRGVS [SRP21]	3.09 ± 0.14	2.54 ± 0.28		2.83 ± 0.084
KIKAILESVGIEIEDEK [RPP2A]	2.75 ± 0.084	3.3 ± 0.11	2.8 ± 0.11	2.99 ± 0.13
TDAHTPLARNYIKSMDL [RPR2]	2.67 ± 0.044	2.73 ± 0.044	2.68 ± 0.041	2.86 ± 0.032
AIACYSGYNQEDSMIMN [RPB2]	2.65 ± 0.084	1.75 ± 0.072	2.67 ± 0.098	2.39 ± 0.12
HTSSSDGNNEIFTCQIM [RPN4]	2.57 ± 0.094	2.89 ± 0.082	3.08 ± 0.064	2.86 ± 0.086
PHLPFSKSENPVLSTIA [SWI3]	1.95 ± 0.049	2.04 ± 0.048	2.03 ± 0.062	2.05 ± 0.028
ESKGNAFKHKRALVEHI [RPL19A]	3.36 ± 0.087	3.38 ± 0.1	3.44 ± 0.047	3.29 ± 0.054
KENFILDSLMKTTRLLL [YJL039C/NUP192]	1.96 ± 0.057	1.64 ± 0.05	1.42 ± 0.095	1.61 ± 0.05
VSLGTSIMAVTFKDGVI [PRE3]	3.55 ± 0.12	3.12 ± 0.18	3.27 ± 0.075	3.6 ± 0.074
ISGNPPLLYNSLCTVWK [SRB5]	2.56 ± 0.051	2.41 ± 0.045	2.34 ± 0.048	2.38 ± 0.055
CSGSGMGGVSALRGMFK [FAS2]	3.64 ± 0.097	3.68 ± 0.08	3.37 ± 0.096	3.43 ± 0.067
ILTDLVNYRHFKAMEDV [ITC1]	2.94 ± 0.14	2.98 ± 0.11	3.28 ± 0.068	3.39 ± 0.063
EELLAQYESQAPDGSAS [SWP82]	3.02 ± 0.061	2.95 ± 0.084	3.13 ± 0.068	3.08 ± 0.046
LNCCGSVARVEDHDVHS [IRR1]	1.98 ± 0.079	2.49 ± 0.065	2.41 ± 0.068	2.45 ± 0.06
EFDEQYGTRPLVLPPVV [SNF2]	3.08 ± 0.071	2.69 ± 0.063	2.86 ± 0.061	2.53 ± 0.046
KALVLFVPVPALSAYHK [RPS7B]	2.13 ± 0.063	2.51 ± 0.072	2.12 ± 0.12	2.4 ± 0.041
RQMKDVNAPLPTPFKVD [RPN2]	3.07 ± 0.079	3.04 ± 0.066	2.79 ± 0.064	2.86 ± 0.053
VRELFEMARTKKACIIF [RPT1]	1.12 ± 0.093	1.29 ± 0.11	1.08 ± 0.21	1.66 ± 0.14
TDQLIQNIETRQLANLI [NUT1]	3.15 ± 0.11	3.14 ± 0.12	2.94 ± 0.13	3.01 ± 0.051
IIKENVKVARLAGKYIP [FAS1]	1.73 ± 0.23	1.6 ± 0.27		1.82 ± 0.1
KSKILRKVVFPFQLDVA [UBP6]	2.23 ± 0.09	2.39 ± 0.089	2.65 ± 0.11	2.44 ± 0.057

Sequence	protein stability index (doa10∆)	protein stability index (pdr5∆)	protein stability index (san1∆)	protein stability index (ubr1∆)
SADYEILYEIRALYTPF [YDL116W/NUP84]	1.86 ± 0.073	2.21 ± 0.068	2.5 ± 0.07	2.06 ± 0.066
NTSESLLVDIQKYNQIQ [SMC2]	1.71 ± 0.07	1.84 ± 0.066	1.66 ± 0.15	1.68 ± 0.048
INSDNQNIILRSTMMKF [RPN3]	2.82 ± 0.092	2.81 ± 0.086	2.77 ± 0.11	2.9 ± 0.059
SLIRNNLHAEGWPKLQL [ECM29]	1.15 ± 0.056	1.25 ± 0.081	1.32 ± 0.17	1.04 ± 0.085
NYNDLIVNYEDLATTQA [BRN1]	2.98 ± 0.07	3.1 ± 0.087	3.34 ± 0.047	3.27 ± 0.061
YSTCPSETDLNDIPLGS [SRB8]	2.52 ± 0.13	2.72 ± 0.18	2.36 ± 0.14	2.47 ± 0.078
PYPKSRYNRAVPDSKIR [RPL10]	3.03 ± 0.049	3.19 ± 0.052	3.05 ± 0.043	3.04 ± 0.048
LVDDENEPSQSLISTRN [BRN1]	3.22 ± 0.058	3.4 ± 0.064	3.19 ± 0.047	3.15 ± 0.057
ERVRNFAVIYLCDIDEV [DIB1]	1.26 ± 0.13	1.22 ± 0.093	1.04 ± 0.26	1.36 ± 0.088
LPHSPLWELALAFIPNI [YML031W/NDC1]	1.36 ± 0.084	1.25 ± 0.044	1.24 ± 0.092	1.08 ± 0.05
LTSGLLYSYLIKENFFE [YJL039C/NUP192]	1.9 ± 0.1	1.74 ± 0.14	1.71 ± 0.12	1.2 ± 0.077
LIALSLIMALLQFRPAP [SMC2]	1.62 ± 0.029	1.3 ± 0.026	1.36 ± 0.048	1.3 ± 0.025
KFKHIDDKYGRKFALEK [SRP72]	2.59 ± 0.061	2.81 ± 0.069	3.17 ± 0.054	3 ± 0.052
TAKETKMLMNLHKEQWQ [RPN11]	3.28 ± 0.097	3.36 ± 0.082	3.5 ± 0.036	3.42 ± 0.068
LTDKDAFETHYRRLFAK [CDC53]	2.94 ± 0.057	3.19 ± 0.067	2.97 ± 0.047	2.97 ± 0.043
MKVLEERNAFLSDYEVL [RPC17]		2.77 ± 0.27		
IIELPNEKFEIELLSLD [SRB4]	2.68 ± 0.056	2.99 ± 0.066	2.84 ± 0.052	2.68 ± 0.048
VENIERVVMMKYDRKVP [RPO21]	2.29 ± 0.17	2.67 ± 0.2	2.13 ± 0.19	2.36 ± 0.085
VLGFLQLFHNLISIHSR [YJL039C/NUP192]	2.67 ± 0.068	2.89 ± 0.059	2.85 ± 0.056	2.98 ± 0.048
SGVMDKSVLGDGKKHSV [RPO31]	3.73 ± 0.21	3.71 ± 0.28	3.31 ± 0.2	
VGVGKLNKLYGGAKSRG [RPS19A]	3.29 ± 0.066	3.39 ± 0.1	3.2 ± 0.047	3.58 ± 0.11
EKFSPKSFISKLLGIGD [SRP54]	3.49 ± 0.14	3.31 ± 0.15	2.68 ± 0.2	3.21 ± 0.17
DQQSPWLLRLELDRAAM [RPO21]	1.49 ± 0.22	1.83 ± 0.14	1.93 ± 0.13	2.66 ± 0.1
HELITNIGETAGVVQDI [RPB9]	2.82 ± 0.066	2.79 ± 0.054	3.27 ± 0.07	3.22 ± 0.057
LIVRAKNHTHNLPGNIT [RRP4]	2.77 ± 0.071	2.96 ± 0.049	2.89 ± 0.066	2.94 ± 0.052

— the supplement of paper PMC9732359
